Conditions: Equus caballus, pH 7, 10 °C, GdnHCl, sodium dithionite 0.5-2 mM, reversible: yes

Sequence of Cytochrome c wild type, P00004 (P00004 whole entry): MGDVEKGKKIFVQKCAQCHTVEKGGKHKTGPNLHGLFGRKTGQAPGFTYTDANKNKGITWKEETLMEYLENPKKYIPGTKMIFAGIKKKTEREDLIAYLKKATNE

Question: For Cytochrome c wild type, P00004, which “denaturant midpoint (higher = more stable)” value (from here on “denaturant midpoint”) (Absorbance) is on record?
Answer: Its value is 5.1 M.

Question: And the unfolding free energy (Absorbance)?
Answer: The unfolding free energy was 18.8 kcal/mol.

Question: And the “denaturant midpoint” value (Absorbance, transition: 3)?
Answer: The value was 5.01 M.

Question: What about the “denaturant midpoint” value (Fluorescence) of the same substance?
Answer: Its value is 5.1 M.

Question: What about the unfolding free energy (Fluorescence) of the same substance?
Answer: The unfolding free energy was 18.8 kcal/mol.

Question: What about the “denaturant midpoint” value (Fluorescence, transition: 3) of the same substance?
Answer: The value was 5.02 M.

— FireProtDB (doi:10.1006/jmbi.2001.4993)
